Assay results from patent US20250017962A1 (US Dept. of Health and Human Services, published 2025).

T1: GPC1-hFc (UniProt P35052 24-530, limits assumed)
T1 construct: not shown: human Fc tag (hFc)
T1 sequence (looked up): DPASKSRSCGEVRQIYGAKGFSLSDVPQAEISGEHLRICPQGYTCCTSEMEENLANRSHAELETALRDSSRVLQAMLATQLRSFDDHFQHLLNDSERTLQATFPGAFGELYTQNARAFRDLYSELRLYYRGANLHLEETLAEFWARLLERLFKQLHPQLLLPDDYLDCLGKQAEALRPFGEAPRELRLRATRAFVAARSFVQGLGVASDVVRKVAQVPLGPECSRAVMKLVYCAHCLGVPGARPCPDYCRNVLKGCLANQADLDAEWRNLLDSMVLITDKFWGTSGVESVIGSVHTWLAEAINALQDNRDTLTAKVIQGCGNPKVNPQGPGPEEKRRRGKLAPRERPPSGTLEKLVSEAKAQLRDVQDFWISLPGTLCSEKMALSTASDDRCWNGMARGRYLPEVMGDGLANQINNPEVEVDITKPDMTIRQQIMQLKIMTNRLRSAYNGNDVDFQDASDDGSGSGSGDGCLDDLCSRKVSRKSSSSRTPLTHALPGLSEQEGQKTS


Experiments:
[1] = target: glypican-3 (GPC3) on HCC cell lines Hep3B, Huh7 and HepG2 (human, UniProt P51654 25-580); assay: cell-based or functional assay
Sequence of glypican-3 (GPC3) on HCC cell lines Hep3B, Huh7 and HepG2 (P51654 25-580): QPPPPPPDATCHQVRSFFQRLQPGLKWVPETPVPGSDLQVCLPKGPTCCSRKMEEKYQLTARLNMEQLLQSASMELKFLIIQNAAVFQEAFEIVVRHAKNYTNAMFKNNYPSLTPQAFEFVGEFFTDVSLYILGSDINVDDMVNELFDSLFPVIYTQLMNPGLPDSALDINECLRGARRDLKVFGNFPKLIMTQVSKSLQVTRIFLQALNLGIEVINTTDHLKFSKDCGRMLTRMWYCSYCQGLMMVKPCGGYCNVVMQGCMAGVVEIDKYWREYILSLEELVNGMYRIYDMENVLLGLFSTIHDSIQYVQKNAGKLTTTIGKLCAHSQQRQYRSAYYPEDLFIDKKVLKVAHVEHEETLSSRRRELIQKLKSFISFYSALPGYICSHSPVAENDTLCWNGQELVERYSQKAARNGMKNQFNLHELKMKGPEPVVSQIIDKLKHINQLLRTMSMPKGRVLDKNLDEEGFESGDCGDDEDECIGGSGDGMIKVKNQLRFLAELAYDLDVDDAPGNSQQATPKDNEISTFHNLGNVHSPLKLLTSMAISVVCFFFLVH

[2] = target: T1, GPC1-hFc; assay: flow cytometry, hFc-tagged protein on CAR-expressing Jurkat cells
Description: To test antigen specificity and cell binding capacity of the engineered GPC3-targeted CARs, T cell lines (Jurkat) transfected with the CAR constructs were developed and binding to GPC3 tagged with human Fc (GPC3-hFc) was assessed. First, successful transduction (95-98%) of all of the CAR constructs was confirmed using the truncated EGFR marker expressed by the CAR lentivirus. […] All CAR T cells specifically bound to GPC3-hFc (FIG. 1A) and not GPC1-hFc (FIG. 1B) at the same concentrations.

Row | Binder | binding result [2] | potency (killing) relative to HN3-CD8H-CD28TM [1] [%] | killing relative to HN3-CD8H-CD8TM CAR T cells [1] [%]
1 | HN3-IgG4H-CD28TM CAR (other, also called HN3-IgG4-CD28TM; HN3-IgGH-CD28TM) HMQVQLVQSGGGLVQPGGSLRLSCAASYFDFDSYEMSWVRQAPGKGLEWIGSIYHSGSTYYNPSLKSRVTISRDNSKNTLYLQMNTLRAEDTATYYCARVNMDRFDYWGQGTLVTVSSTSESKYGPPCPPCPFWVLVVVGGVLACYSLLVTVAFIIFWVKRGRKKLLYIFKQPFMRPVQTTQEEDGCSCRFPEEEEGGCELRVKFSRSADAPAYQQGQNQLYNELNLGRREEYDVLDKRRGRDPEMGGKPRRKNPQEGLYNELQKDKMAEAYSEIGMKGERRRGKGHDGLYQGLSTATKDTYDALHMQALPPR | no binding (tested: 1, 2 and 5 µg/mL) | 10 to 20 | –
2 | HN3-CD8H-CD28TM CAR (other) HMQVQLVQSGGGLVQPGGSLRLSCAASYFDFDSYEMSWVRQAPGKGLEWIGSIYHSGSTYYNPSLKSRVTISRDNSKNTLYLQMNTLRAEDTATYYCARVNMDRFDYWGQGTLVTVSSTSTTTPAPRPPTPAPTIASQPLSLRPEACRPAAGGAVHTRGLDFACDFWVLVVVGGVLACYSLLVTVAFIIFWVKRGRKKLLYIFKQPFMRPVQTTQEEDGCSCRFPEEEEGGCELRVKFSRSADAPAYQQGQNQLYNELNLGRREEYDVLDKRRGRDPEMGGKPRRKNPQEGLYNELQKDKMAEAYSEIGMKGERRRGKGHDGLYQGLSTATKDTYDALHMQALPPR | no binding (tested: 1, 2 and 5 µg/mL) | – | 40

Second part, led by results:

Row | binding result [2] | Binder | potency (killing) relative to HN3-CD8H-CD28TM [1] [%] | killing relative to HN3-CD8H-CD8TM CAR T cells [1] [%]
3 | no binding (tested: 1, 2 and 5 µg/mL) | HN3-IgG4H-CD8TM CAR (other) HMQVQLVQSGGGLVQPGGSLRLSCAASYFDFDSYEMSWVRQAPGKGLEWIGSIYHSGSTYYNPSLKSRVTISRDNSKNTLYLQMNTLRAEDTATYYCARVNMDRFDYWGQGTLVTVSSTSESKYGPPCPPCPIYIWAPLAGTCGVLLLSLVITKRGRKKLLYIFKQPFMRPVQTTQEEDGCSCRFPEEEEGGCELRVKFSRSADAPAYQQGQNQLYNELNLGRREEYDVLDKRRGRDPEMGGKPRRKNPQEGLYNELQKDKMAEAYSEIGMKGERRRGKGHDGLYQGLSTATKDTYDALHMQALPPR | – | –
4 | no binding (tested: 1, 2 and 5 µg/mL) | hYP7-CD8H-CD8TM CAR (other) HMEVQLVESGGGLVQPGGSLRLSCAASGFTFNKNAMNWVRQAPGKGLEWVGRIRNKTNNYATYYADSVKARFTISRDDSKNSLYLQMNSLKTEDTAVYYCVAGNSFAYWGQGTLVTVSAGGGGSGGGGSGGGGSDIVMTQSPDSLAVSLGERATINCKSSQSLLYSSNQKNYLAWYQQKPGQPPKLLIYWASSRESGVPDRFSGSGSGTDFTLTISSLQAEDVAVYYCQQYYNYPLTFGQGTKLEIKTSTTTPAPRPPTPAPTIASQPLSLRPEACRPAAGGAVHTRGLDFACDIYIWAPLAGTCGVLLLSLVITKRGRKKLLYIFKQPFMRPVQTTQEEDGCSCRFPEEEEGGCELRVKFSRSADAPAYQQGQNQLYNELNLGRREEYDVLDKRRGRDPEMGGKPRRKNPQEGLYNELQKDKMAEAYSEIGMKGERRRGKGHDGLYQGLSTATKDTYDALHMQALPPR | – | –
